According to the supplement of paper PMC11246515:
± gives the standard deviation of the averaged measurements.

Experiment: total protein half-life in vivo (active degradation + dilution); higher = more stable protein
[1] = E. coli NCM3722 delta-clpP delta-lon delta-hslV, growth: N-lim chemostat, doubling time 6 h
[2] = E. coli NCM3722 delta-lon, growth: N-lim chemostat, doubling time 6 h
[3] = E. coli NCM3722 delta-smpB, growth: N-lim chemostat, doubling time 6 h
[4] = wild type E. coli NCM3722, growth: C-lim chemostat, doubling time 6 h
[5] = wild type E. coli NCM3722, growth: N-lim chemostat, doubling time 6 h
[6] = wild type E. coli NCM3722, growth: P-lim chemostat, doubling time 12 h
[7] = E. coli NCM3722 delta-clpP, growth: N-lim chemostat, doubling time 6 h
[8] = E. coli NCM3722 delta-hslV, growth: N-lim chemostat, doubling time 6 h
[9] = wild type E. coli NCM3722, growth: C-lim chemostat, doubling time 3 h
[10] = wild type E. coli NCM3722, growth: C-lim chemostat, doubling time 12 h
[11] = wild type E. coli NCM3722, growth: N-lim chemostat, doubling time 12 h
[12] = wild type E. coli NCM3722, growth: P-lim chemostat, doubling time 6 h

Row | Sequence | total protein half-life in vivo [1] [h] | total protein half-life in vivo [2] [h] | total protein half-life in vivo [3] [h] | total protein half-life in vivo [4] [h] | total protein half-life in vivo [5] [h] | total protein half-life in vivo [6] [h] | total protein half-life in vivo [7] [h] | total protein half-life in vivo [8] [h] | total protein half-life in vivo [9] [h] | total protein half-life in vivo [10] [h] | total protein half-life in vivo [11] [h] | total protein half-life in vivo [12] [h]
1 | METFNSLFMVSPLLLGVLFFVAMLAGFIDSIAGGGGLLTIPALMAAGMSPANALATNKLQACGGSISATIYFIRRKVVSLSDQKLNIAMTFVGSMSGALLVQYVQADVLRQILPILVICIGLYFLLMPKLGEEDRQRRMYGLPFALIAGGCVGFYDGFFGPAAGSFYALAFVTLCGFNLAKATAHAKLLNATSNIGGLLLFILGGKVIWATGFVMLVGQFLGARMGSRLVLSKGQKLIRPMIVIVSAVMSAKLLYDSHGQEILHWLGMN [P0AD30] | 6.4 | 6.29 ± 0.21 | 6.13 | 5.18 ± 0.11 | 4.37 | 10 ± 3.5 |  |  |  |  |  | 
2 | MVKLAFPRELRLLTPSQFTFVFQQPQRAGTPQITILGRLNSLGHPRIGLTVAKKNVRRAHERNRIKRLTRESFRLRQHELPAMDFVVVAKKGVADLDNRALSEALEKLWRRHCRLARGS [P0A7Y8] |  | 6.46 ± 0.22 | 3.76 ± 0.17 | 4.82 ± 0.15 | 3.63 ± 0.43 | 7.12 ± 0.64 | 5.44 | 4.21 | 3.11 ± 0.27 | 8.06 | 7.32 ± 2.1 | 3.7
3 | MKRAVITGLGIVSSIGNNQQEVLASLREGRSGITFSQELKDSGMRSHVWGNVKLDTTGLIDRKVVRFMSDASIYAFLSMEQAIADAGLSPEAYQNNPRVGLIAGSGGGSPRFQVFGADAMRGPRGLKAVGPYVVTKAMASGVSACLATPFKIHGVNYSISSACATSAHCIGNAVEQIQLGKQDIVFAGGGEELCWEMACEFDAMGALSTKYNDTPEKASRTYDAHRDGFVIAGGGGMVVVEELEHALARGAHIYAEIVGYGATSDGADMVAPSGEGAVRCMKMAMHGVDTPIDYLNSHGTSTPVGDVKELAAIREVFGDKSPAISATKAMTGHSLGAAGVQEAIYSLLMLEHGFIAPSINIEELDEQAAGLNIVTETTDRELTTVMSNSFGFGGTNATLVMRKLKD [P0A953] | 5.27 ± 0.45 | 4.98 ± 0.26 | 4.81 ± 0.049 | 6.06 ± 0.36 | 4.78 ± 0.11 | 12.3 ± 0.21 | 5.06 ± 0.069 | 4.81 ± 0.16 | 2.99 ± 0.039 | 10.8 ± 0.81 | 8.39 ± 0.45 | 5.89 ± 0.25
4 | MSKISDLNYSQHITLADNFKQKSEVLNTWRVGMNDFARIAGGQDNRRNILSPGAFLEFLAKIFTLGYVDFSKRSNEAGRNMMAHIKSSSYSKDTNGNEKMKFYMNNPVGERADSPKVIIEISLSTITTMGTRQGHTAIIFPQPDGSTNRYEGKSFERKDESSLHLITNKVLACYQSEANKKIARLLNNNQELNNLQKLNNLQKLNNLLKLNNIQGLNNPQELNNPQNLNDSQELNNSQELNSPQELNDPQELNNSQDLNNSKVSCTVSVDSTITGLLKEPLNNALLAIRNEHLLLMPHVCDESISYLLGEKGILEEIDKLYALNDHGIDNDKVGNNEINDIKVNLSHILIDSLDDAKVNLTPVIDSILETFSKSPYINDVRILDWCFNKSMQYFDDTKKIKHACSVINHINLRSDQSKIAETLFFNLDKEPYKNSPELQGLIWNKLVVYVNEFNLSNREKTNLIQRLFDNVESIFNEVPVSILVNDIFMNDFFMKNPEMINWYFPQLLKSYEGEKIYFDNLKYDLNDNDKESNKEILKNQPDNVIKEKLNNEYKLRFRMMQTILQSRVNVLPYINEQRLNKLNPPENLRIAIEHFGWKNRPITA | 5.05 | 3.78 |  | 3.95 ± 2.7 |  | 2.84 ± 1.1 | 4.13 ± 0.42 | 4.07 | 1.27 | 8.85 |  | 2.71
5 | MRVITLAGSPRFPSRSSSLLEYAREKLNGLDVEVYHWNLQNFAPEDLLYARFDSPALKTFTEQLQQADGLIVATPVYKAAYSGALKTLLDLLPERALQGKVVLPLATGGTVAHLLAVDYALKPVLSALKAQEILHGVFADDSQVIDYHHRPQFTPNLQTRLDTALETFWQALHRRDVQVPDLLSLRGNAHA | 4.66 ± 0.17 | 1.83 |  |  |  |  |  |  |  |  |  | 
6 | MKMANHPRPGDIIQESLDELNVSLREFARAMEIAPSTASRLLTGKAALTPEMAIKLSVVIGSSPQMWLNLQNAWSLAEAEKTVDVSRLRRLVTQ | 3.73 ± 0.35 |  | 1.217 ± 0.0059 | 2.32 |  | 3.05 ± 1.1 |  |  | 1.58 | 2.59 |  | 
7 | MSTTNHDHHIYVLMGVSGSGKSAVASEVAHQLHAAFLDGDFLHPRRNIEKMASGEPLNDDDRKPWLQALNDAAFAMQRTNKVSLIVCSALKKHYRDLLREGNPNLSFIYLKGDFDVIESRLKARKGHFFKTQMLVTQFETLQEPGADETDVLVVDIDQPLEGVVASTIEVIKKGK | 5.07 ± 0.67 |  | 4.121 ± 0.011 | > 8 | 3.92 ± 0.44 | 9.14 ± 0.42 | 4.474 ± 0.042 | 4.01 | 3.02 ± 0.08 | 8.67 | 6.38 ± 0.14 | 4.1
8 | MGIIAQNKISSLGMLFGAIALMMGIIHFSFGPFSAPPPTFESIVADKTAEIKRGLLAGIKGEKITTVEKKEDVDVDKILNQSGIALAIAALLCAFIGGMRKENRWGIRGALVFGGGTLAFHTLLFGIGIVCSILLIFLIFSFLTGGSLV |  |  |  |  | 5.09 |  |  |  |  |  |  | 
9 | MNIKIAALTLAIASGISAQWAIAADMPASPAPTIPVKQYVTQVNADNSVTFRYFAPGAKNVSVVVGVPVPDNIHPMTKDEAGVWSWRTPILKGNLYEYFFNVDGVRSIDTGTAMTNPQRQVNSSMILVPGSYLDTRSVAHGDLIAITYHSNALQSERQMYVWTPPGYTGMGEPLPVLYFYHGFGDTGRSAIDQGRIPQIMDNLLAEGKIKPMLVVIPDTETDAKGIIPEDFVPQERRKVFYPLNAKAADRELMNDIIPLISKRFNVRKDADGRALAGLSQGGYQALVSGMNHLESFGWLATFSGVTTTTVPDEGVAARLNDPAAINQQLRNFTVVVGDKDVVTGKDIAGLKTELEQKKINFDYQEYPGLNHEMDVWRPAYAAFVQKLFK | 4.45 |  | 3.45 ± 0.76 |  |  |  |  |  |  |  |  | 
10 | MSLVTDLPAIFDQFSEARQTGFLTVMDLKERGIPLVGTYCTFMPQEIPMAAGAVVVSLCSTSDETIEEAEKDLPRNLCPLIKSSYGFGKTDKCPYFYFSDLVVGETTCDGKKKMYEYMAEFKPVHVMQLPNSVKDDASRALWKAEMLRLQKTVEERFGHEISEDALRDAIALKNRERRALANFYHLGQLNPPALSGSDILKVVYGATFRFDKEALINELDAMTARVRQQWEEGQRLDPRPRILITGCPIGGAAEKVVRAIEENGGWVVGYENCTGAKATEQCVAETGDVYDALADKYLAIGCSCVSPNDQRLKMLSQMVEEYQVDGVVDVILQACHTYAVESLAIKRHVRQQHNIPYIAIETDYSTSDVGQLSTRVAAFIEML |  |  |  | 1.98 |  |  |  |  | 1.59 ± 0.089 | 2.51 ± 0.083 |  | 
